Experiments:
[1] = target: Cdc2-F15/CyclinB1 complex (UniProt P06493)
[2] = target: kinase-deficient Cdc2 mutant (K-) complexed with cyclin B1 (UniProt P06493)
[3] = target: wild-type Cdc2/cyclin B1 complex (UniProt P06493)
Cdc2-AF/CyclinB1 complex = Cdc2-AF/CyclinB1 complex (UniProt P06493)
Chain of Cdc2-AF/CyclinB1 complex (P06493 whole entry, looked up, one chain of several): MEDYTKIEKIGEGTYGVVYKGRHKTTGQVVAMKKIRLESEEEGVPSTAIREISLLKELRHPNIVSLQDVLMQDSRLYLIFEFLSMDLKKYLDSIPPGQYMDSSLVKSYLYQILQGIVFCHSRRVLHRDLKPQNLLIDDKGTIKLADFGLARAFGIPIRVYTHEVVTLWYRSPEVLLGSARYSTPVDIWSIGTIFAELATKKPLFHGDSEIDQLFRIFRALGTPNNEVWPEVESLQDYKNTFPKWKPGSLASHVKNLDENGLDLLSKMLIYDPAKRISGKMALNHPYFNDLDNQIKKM

Chain of full-length human Wee1 with N-terminal Glu-Glu tag, expressed in Sf9 cells (chain, as listed by the source): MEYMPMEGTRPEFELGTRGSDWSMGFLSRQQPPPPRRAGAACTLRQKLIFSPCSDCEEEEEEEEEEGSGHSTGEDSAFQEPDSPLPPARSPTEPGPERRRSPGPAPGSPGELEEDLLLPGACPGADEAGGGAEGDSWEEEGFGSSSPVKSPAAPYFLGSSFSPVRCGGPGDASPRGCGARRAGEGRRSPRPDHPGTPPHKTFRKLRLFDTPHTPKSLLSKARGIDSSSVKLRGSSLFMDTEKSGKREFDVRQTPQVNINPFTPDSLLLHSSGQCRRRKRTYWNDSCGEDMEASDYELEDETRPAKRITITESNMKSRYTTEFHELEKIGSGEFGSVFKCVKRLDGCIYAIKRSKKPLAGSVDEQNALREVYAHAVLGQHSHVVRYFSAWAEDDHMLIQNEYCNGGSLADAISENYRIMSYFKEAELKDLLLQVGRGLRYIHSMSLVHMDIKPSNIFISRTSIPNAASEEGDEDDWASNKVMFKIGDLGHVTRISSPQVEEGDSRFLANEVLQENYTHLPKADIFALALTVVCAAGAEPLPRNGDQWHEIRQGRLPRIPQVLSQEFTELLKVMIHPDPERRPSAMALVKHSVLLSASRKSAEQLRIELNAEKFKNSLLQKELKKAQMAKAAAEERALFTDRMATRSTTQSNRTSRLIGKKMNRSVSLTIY
Chain of Cdc2-F15/CyclinB1 complex (P06493 whole entry, looked up, one chain of several): as the sequence (P06493 whole entry, looked up, one chain of several) above
Chain of wild-type Cdc2/cyclin B1 complex (P06493 whole entry, looked up, one chain of several): as above
Chain of kinase-deficient Cdc2 mutant (K-) complexed with cyclin B1 (P06493 whole entry, looked up, change not shown, one chain of several): as the sequence (P06493 whole entry, looked up, one chain of several) above

full-length human Wee1 with N-terminal Glu-Glu tag, expressed in Sf9 cells
histone H1 kinase activity in mixed Sf9 lysates [1]: Cdc2-F15/CyclinB1 and Cdc2-AF/CylinB1 complexes retained full activity in the presence of Wee1 lysates
phosphoamino acid analysis of 32P-labeled Cdc2 [2]: the Tyrosine 15 residue was readily phosphorylated by full-length Wee1
histone H1 kinase activity of Cdc2/CyclinB1 in mixed Sf9 lysates [3]: the addition of Wee1 lysates effectively inhibited Cdc2/CyclinB1 kinase activation
histone H1 kinase activity in mixed Sf9 lysates (Cdc2-AF/CyclinB1 complex): Cdc2-F15/CyclinB1 and Cdc2-AF/CylinB1 complexes retained full activity in the presence of Wee1 lysates

Reference: patent publication US6558918
